Where “and” joins values, the source holds several entries; their conditions need not be identical. Equal entries are not always repeated.
What was measured:
[1] = biological target: T1, p50/RelA-FL: p50 subunit (39-350);RelA-RHD (no TAD) (murine;murine, UniProt P25799;Q04207 39-350;19-321, |); assay: fluorescence anisotropy; SEC buffer 25 mM Tris pH 7.5, 150 mM NaCl, 0.5 mM EDTA, 1 mM DTT (FA buffer not stated explicitly; 5 nM DNA, RT incubation, read at 25 C); EMSA: SEC buffer 1:1; conditions: protein: recombinant;recombinant, tags: N-terminal His6;none, copies: 1;1
[2] = biological target: T2, p50/RelA-FL: p50 subunit (39-350);RelA-FL (RHD + TAD) (murine;murine, UniProt P25799;Q04207 39-350;19-549, |); assay: as above; conditions: protein: recombinant;recombinant, tags: N-terminal His6;none, copies: 1;1
[3] = biological target: T1, p50/RelA-FL: p50 subunit …; assay: EMSA; SEC buffer 25 mM Tris pH 7.5, 150 mM NaCl, 0.5 mM EDTA, 1 mM DTT (FA buffer not stated explicitly; 5 nM DNA, RT incubation, read at 25 C); EMSA: SEC buffer 1:1; conditions: protein: recombinant;recombinant; tags: N-terminal His6;none; copies: 1;1
[4] = biological target: T2, p50/RelA-FL: p50 subunit …; assay: as above; conditions: protein: recombinant;recombinant; tags: N-terminal His6;none; copies: 1;1
[5] = label: 5' fluorescein on forward or reverse strand
[6] = label: 5' fluorescein (FITC), hairpin

T2 sequence (P25799 39-350, chain 1 of 2): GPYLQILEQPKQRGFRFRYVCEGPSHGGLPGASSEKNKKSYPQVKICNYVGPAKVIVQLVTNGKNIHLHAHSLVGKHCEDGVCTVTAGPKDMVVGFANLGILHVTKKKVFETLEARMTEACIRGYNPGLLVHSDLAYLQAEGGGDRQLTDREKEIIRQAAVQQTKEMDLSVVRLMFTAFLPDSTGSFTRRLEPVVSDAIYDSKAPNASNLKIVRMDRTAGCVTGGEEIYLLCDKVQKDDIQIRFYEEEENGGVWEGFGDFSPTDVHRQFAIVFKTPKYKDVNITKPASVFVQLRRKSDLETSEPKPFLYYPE
T2 sequence (Q04207 19-549, chain 2 of 2): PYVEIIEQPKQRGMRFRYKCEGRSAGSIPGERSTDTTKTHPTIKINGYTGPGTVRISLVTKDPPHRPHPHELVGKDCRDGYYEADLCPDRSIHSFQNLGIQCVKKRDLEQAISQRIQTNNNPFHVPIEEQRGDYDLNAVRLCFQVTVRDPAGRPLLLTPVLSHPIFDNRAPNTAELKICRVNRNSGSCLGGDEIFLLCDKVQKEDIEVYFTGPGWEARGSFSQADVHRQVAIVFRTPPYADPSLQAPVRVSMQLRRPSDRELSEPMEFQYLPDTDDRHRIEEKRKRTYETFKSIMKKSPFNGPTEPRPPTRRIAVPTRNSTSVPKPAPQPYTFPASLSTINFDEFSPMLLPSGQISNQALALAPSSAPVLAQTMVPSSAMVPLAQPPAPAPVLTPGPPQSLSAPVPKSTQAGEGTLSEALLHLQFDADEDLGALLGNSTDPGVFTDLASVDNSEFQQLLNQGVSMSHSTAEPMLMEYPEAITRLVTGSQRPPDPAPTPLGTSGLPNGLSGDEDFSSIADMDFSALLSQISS
T1 sequence (P25799 39-350, chain 1 of 2): as the sequence (P25799 39-350, chain 1 of 2) above
T1 sequence (Q04207 19-321, chain 2 of 2): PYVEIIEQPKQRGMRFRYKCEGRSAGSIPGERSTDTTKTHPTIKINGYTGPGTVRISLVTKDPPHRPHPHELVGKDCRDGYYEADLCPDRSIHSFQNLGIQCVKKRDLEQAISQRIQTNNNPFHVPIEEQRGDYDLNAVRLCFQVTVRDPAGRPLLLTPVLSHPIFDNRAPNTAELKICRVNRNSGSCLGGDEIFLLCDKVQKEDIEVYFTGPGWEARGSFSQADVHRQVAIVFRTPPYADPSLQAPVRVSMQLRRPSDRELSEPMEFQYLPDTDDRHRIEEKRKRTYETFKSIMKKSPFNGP

B1: NFKBIA tandem dsDNA (FA) (dsDNA)
DNA 1: CTTGGAAATTCCCCGAGCCTGACCCCGCCCCAGAGAAATCCCCAG
DNA 2: CTGGGGATTTCTCTGGGGCGGGGTCAGGCTCGGGGAATTTCCAAG
In the case of B1, the Kd [1, 5] is reported as 1.7 nM and 10 nM and the Kd [2, 5] is reported as 1.5 nM and 5.1 nM.

B2: HIV LTR tandem dsDNA (FA) (dsDNA)
DNA 1: CAAGGGACTTTCCGCTGGGGACTTTCCAGG
DNA 2: CCTGGAAAGTCCCCAGCGGAAAGTCCCTTG
B2 showed a Kd [1, 5] of 1.7 ± 0.4 nM and a Kd [2, 5] of 1.3 ± 0.4 nM.

B3: Random hairpin (structured_DNA)
DNA: GTAGACGTGCTCCCCCAGCACGTCTAC
modifications: 5' 5AmMC6 amino linker
For B3, the Kd [1, 6] was 1500 ± 100 nM and the Kd [2, 6] was 130 ± 40 nM.

B4: NFKBIA tandem 59 bp (dsDNA)
DNA 1: CTGACTGGCTTGGAAATTCCCCGAGCCTGACCCCGCCCCAGAGAAATCCCCAGCCAGCG
DNA 2: CGCTGGCTGGGGATTTCTCTGGGGCGGGGTCAGGCTCGGGGAATTTCCAAGCCAGTCAG
B4: binds [3]; binds [4].

B5: HIV LTR tandem 33 bp (dsDNA)
DNA 1: AAGGGACTTTCCGCTGGGGACTTTCCAGGGAGG
DNA 2: CCTCCCTGGAAAGTCCCCAGCGGAAAGTCCCTT
B5: binds [3]; binds [4].

B6: Urokinase (UK) hairpin (structured_DNA)
DNA: GGGAAAGTACTCCCCCAGTACTTTCCC
modifications: 5' 5AmMC6 amino linker
B6 was tested, and the Kd [1, 6] was 6.3 ± 1.5 nM and the Kd [2, 6] was 2.2 ± 0.6 nM.
